From US20240261333A1, “NOVEL TARGETS FOR ENHANCING ANTI-TUMOR IMMUNITY” (THE BROAD INSTITUTE, INC., priority 2021, published 2024)

Key:
DNAJA3 (human) = DNAJA3 (human) (UniProt Q96EY1); assay: IgG control IP from lysate of C-FLAG B3GNT2 cells, mass spectrometry
ELOC (human) = ELOC (human) (UniProt Q15369); assay: as above
ERP29 (human) = ERP29 (human) (UniProt P30040); assay: as above
HDGFL2 (human) = HDGFL2 (human) (UniProt Q7Z4V5); assay: as above
HSP90AB1 (human) = HSP90AB1 (human) (UniProt P08238); assay: as above
LARP4 (human) = LARP4 (human) (UniProt Q71RC2); assay: as above
NTPCR (human) = NTPCR (human) (UniProt Q9BSD7); assay: as above
PDIA4 (human) = PDIA4 (human) (UniProt P13667); assay: as above
PGAM5 (human) = PGAM5 (human) (UniProt Q96HS1); assay: as above
Sequence of PGAM5 (human) (Q96HS1 whole entry): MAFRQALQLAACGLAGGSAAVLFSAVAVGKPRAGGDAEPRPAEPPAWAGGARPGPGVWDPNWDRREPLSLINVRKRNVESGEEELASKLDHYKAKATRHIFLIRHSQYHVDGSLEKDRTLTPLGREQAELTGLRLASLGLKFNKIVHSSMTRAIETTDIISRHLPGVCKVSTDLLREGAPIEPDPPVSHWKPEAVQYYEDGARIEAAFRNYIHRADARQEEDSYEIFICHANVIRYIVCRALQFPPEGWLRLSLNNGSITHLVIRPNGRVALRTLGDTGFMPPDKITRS

PSMA5 (human) = PSMA5 (human) (UniProt P28066); assay: as above
Sequence of PSMA5 (human) (P28066 whole entry): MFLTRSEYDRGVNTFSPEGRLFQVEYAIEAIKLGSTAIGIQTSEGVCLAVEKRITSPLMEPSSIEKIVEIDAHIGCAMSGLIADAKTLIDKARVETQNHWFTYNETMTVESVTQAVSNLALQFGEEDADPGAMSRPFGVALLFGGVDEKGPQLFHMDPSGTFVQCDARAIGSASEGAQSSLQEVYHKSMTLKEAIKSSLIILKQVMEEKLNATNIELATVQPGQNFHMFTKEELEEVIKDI

PSMB4 (human) = PSMB4 (human) (UniProt P28070); assay: as above
Sequence of PSMB4 (human) (P28070 46-264 limits assumed): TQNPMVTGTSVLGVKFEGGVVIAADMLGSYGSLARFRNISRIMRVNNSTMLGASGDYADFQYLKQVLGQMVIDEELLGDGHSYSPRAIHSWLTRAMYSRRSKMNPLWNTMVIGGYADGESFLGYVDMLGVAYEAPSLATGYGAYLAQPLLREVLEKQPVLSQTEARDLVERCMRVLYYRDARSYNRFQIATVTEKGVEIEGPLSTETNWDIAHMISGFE

PSMB6 (human) = PSMB6 (human) (UniProt P28072); assay: as above
Sequence of PSMB6 (human) (P28072 35-239 limits assumed): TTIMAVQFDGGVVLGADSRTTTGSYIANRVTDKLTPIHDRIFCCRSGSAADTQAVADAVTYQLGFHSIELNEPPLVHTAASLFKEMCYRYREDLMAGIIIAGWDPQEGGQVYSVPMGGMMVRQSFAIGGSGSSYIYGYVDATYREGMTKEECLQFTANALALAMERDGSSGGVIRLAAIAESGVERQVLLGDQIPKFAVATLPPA

PXN (human) = PXN (human) (UniProt P49023); assay: as above
RCN1 (human) = RCN1 (human) (UniProt Q15293); assay: as above
Sequence of RCN1 (human) (Q15293 30-331 limits assumed): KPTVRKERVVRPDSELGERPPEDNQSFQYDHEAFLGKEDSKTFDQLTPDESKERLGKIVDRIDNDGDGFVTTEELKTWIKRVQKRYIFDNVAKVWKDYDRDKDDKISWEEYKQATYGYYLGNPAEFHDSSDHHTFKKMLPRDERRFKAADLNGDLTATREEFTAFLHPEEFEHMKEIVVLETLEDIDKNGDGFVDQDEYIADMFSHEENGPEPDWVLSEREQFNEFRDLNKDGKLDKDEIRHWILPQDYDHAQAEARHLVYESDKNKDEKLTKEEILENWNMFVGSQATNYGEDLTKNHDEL

RPL34 (human) = RPL34 (human) (UniProt P49207); assay: as above
RRBP1 (human) = RRBP1 (human) (UniProt Q9P2E9); assay: as above
SFXN3 (human) = SFXN3 (human) (UniProt Q9BWM7); assay: as above
Sequence of SFXN3 (human) (Q9BWM7 whole entry): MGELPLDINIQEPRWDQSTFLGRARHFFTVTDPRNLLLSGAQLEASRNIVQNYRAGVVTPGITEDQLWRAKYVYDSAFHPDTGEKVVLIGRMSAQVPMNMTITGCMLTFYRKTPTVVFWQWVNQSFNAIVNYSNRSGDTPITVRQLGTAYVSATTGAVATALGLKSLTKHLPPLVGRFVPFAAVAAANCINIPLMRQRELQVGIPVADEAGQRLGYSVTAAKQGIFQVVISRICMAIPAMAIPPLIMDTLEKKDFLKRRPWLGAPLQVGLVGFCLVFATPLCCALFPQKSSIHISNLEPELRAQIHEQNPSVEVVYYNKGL

STAU1 (human) = STAU1 (human) (UniProt O95793); assay: as above
Sequence of STAU1 (human) (O95793 other isoform, or with tags, fused parts or gaps limits assumed): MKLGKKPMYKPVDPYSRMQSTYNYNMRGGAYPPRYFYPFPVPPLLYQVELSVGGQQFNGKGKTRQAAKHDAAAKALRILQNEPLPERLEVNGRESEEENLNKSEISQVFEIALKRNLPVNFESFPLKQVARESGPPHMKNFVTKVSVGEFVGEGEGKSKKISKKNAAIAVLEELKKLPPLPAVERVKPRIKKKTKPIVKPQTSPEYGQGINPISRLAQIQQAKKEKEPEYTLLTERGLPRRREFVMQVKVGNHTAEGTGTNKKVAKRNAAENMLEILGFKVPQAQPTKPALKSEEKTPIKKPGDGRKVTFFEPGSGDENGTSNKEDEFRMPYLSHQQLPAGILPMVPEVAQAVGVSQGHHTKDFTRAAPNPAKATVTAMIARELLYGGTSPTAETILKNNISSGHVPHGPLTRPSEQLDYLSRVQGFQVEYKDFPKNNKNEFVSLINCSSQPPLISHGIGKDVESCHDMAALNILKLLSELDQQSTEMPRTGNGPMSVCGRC

TECR (human) = TECR (human) (UniProt Q9NZ01); assay: as above
TUBA1C (human) = TUBA1C (human) (UniProt Q9BQE3); assay: as above
ZRANB2 (human) = ZRANB2 (human) (UniProt O95218); assay: as above
Sequence of ZRANB2 (human) (O95218 other isoform, or with tags, fused parts or gaps limits assumed): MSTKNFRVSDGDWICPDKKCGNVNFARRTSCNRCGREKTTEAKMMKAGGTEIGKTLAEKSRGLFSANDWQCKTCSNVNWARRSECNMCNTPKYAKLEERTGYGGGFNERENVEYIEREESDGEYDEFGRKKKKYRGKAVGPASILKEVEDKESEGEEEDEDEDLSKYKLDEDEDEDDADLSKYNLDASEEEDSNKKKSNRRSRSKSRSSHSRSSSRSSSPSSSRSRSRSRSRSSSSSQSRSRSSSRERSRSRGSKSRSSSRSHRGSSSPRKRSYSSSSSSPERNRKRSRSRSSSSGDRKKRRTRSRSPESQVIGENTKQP

ATP5F1B = ATP5F1B (UniProt P06576); assay: co-IP with mouse IgG control, mass spectrometry; lysate of N-FLAG B3GNT2 cells
Sequence of ATP5F1B (P06576 48-529 limits assumed): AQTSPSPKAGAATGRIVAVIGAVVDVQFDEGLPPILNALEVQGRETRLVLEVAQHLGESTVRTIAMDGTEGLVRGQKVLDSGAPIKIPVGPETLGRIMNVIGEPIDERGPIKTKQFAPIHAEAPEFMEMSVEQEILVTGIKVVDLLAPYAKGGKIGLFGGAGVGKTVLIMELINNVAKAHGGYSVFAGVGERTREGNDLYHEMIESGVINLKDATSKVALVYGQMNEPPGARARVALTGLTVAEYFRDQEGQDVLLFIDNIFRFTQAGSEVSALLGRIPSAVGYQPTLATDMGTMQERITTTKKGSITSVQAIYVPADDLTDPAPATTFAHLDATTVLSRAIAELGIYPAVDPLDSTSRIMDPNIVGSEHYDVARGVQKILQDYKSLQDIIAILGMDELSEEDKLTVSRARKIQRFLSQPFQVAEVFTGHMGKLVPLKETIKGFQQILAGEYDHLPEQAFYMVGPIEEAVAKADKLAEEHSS

CTSD = CTSD (UniProt P07339); assay: as above
Sequence of CTSD (P07339 65-412 limits assumed): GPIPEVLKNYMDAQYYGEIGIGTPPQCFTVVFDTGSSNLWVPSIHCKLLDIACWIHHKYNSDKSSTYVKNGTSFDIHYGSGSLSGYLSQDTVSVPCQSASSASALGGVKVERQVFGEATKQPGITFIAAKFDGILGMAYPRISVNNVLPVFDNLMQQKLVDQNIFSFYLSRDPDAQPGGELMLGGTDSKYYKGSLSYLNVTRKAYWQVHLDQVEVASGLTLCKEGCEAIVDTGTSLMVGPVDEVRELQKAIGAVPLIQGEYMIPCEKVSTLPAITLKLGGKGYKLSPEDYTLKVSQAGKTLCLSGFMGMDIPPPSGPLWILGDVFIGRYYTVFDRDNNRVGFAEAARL

FABP5 = FABP5 (UniProt Q01469); assay: as above
Sequence of FABP5 (Q01469 2-135 limits assumed): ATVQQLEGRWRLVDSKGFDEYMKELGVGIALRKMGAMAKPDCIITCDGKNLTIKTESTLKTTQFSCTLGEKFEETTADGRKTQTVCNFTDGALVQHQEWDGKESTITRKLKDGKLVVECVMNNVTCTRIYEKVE

HNRNPA1 = HNRNPA1 (UniProt P09651); assay: as above
Sequence of HNRNPA1 (P09651 2-372 limits assumed): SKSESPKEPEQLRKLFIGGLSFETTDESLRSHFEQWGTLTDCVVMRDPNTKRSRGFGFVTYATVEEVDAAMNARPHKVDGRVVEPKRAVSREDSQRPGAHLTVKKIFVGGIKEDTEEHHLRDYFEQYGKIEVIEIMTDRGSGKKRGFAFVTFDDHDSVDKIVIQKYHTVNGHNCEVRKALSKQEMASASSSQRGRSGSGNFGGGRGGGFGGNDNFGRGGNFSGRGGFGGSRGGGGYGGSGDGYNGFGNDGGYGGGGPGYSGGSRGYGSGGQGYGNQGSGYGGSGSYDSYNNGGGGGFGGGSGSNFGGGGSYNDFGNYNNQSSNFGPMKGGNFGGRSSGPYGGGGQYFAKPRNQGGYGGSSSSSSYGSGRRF

HNRNPF = HNRNPF (UniProt P52597); assay: as above
LTF = LTF (UniProt P02788); assay: as above
PCMT1 = PCMT1 (UniProt P22061); assay: as above
Sequence of PCMT1 (P22061 2-227 limits assumed): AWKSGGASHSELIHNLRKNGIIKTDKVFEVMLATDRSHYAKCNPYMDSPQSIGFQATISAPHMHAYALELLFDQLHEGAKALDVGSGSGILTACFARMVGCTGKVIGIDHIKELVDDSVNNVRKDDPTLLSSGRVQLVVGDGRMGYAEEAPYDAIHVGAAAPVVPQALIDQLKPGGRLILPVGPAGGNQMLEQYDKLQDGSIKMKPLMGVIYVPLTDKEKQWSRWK

PPIA = PPIA (UniProt P62937); assay: as above
RCC2 = RCC2 (UniProt Q9P258); assay: as above
RPL11 = RPL11 (UniProt P62913); assay: as above
RPL21 = RPL21 (UniProt P46778); assay: as above
RPL36A = RPL36A (UniProt P83881); assay: as above
RPLP2 = RPLP2 (UniProt P05387); assay: as above
RPS15A = RPS15A (UniProt P62244); assay: as above
RPS17 = RPS17 (UniProt P08708); assay: as above
S100A8 = S100A8 (UniProt P05109); assay: as above
SPRR2E = SPRR2E (UniProt P22531); assay: as above
Sequence of SPRR2E (P22531 whole entry): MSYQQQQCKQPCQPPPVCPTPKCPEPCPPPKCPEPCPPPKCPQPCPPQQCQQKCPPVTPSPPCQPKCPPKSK

YWHAZ = YWHAZ (UniProt P63104); assay: as above

Sequence of DNAJA3 (human) (Q96EY1 other isoform, or with tags, fused parts or gaps limits assumed): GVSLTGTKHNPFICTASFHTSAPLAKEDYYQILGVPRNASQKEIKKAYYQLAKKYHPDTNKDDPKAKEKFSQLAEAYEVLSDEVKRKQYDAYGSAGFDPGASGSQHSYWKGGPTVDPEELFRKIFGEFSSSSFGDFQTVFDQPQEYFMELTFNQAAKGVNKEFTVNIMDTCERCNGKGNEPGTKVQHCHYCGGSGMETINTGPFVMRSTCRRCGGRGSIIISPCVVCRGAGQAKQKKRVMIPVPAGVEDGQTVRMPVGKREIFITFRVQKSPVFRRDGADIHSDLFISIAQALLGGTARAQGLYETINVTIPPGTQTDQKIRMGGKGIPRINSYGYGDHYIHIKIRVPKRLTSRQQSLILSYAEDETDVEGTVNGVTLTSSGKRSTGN
Sequence of ELOC (human) (Q15369 whole entry): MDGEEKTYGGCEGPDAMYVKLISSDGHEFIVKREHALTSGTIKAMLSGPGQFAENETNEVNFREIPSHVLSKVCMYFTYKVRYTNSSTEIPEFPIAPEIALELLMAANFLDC

Which co-IP mass spectrometry count (DNAJA3 (human)) does the source give for “IgG control (Millipore Sigma 12-371) (antibody)” here?
Its co-IP mass spectrometry count is 0.

And the co-IP mass spectrometry count (ELOC (human))?
The co-IP mass spectrometry count was 0.

What about the co-IP mass spectrometry count (ERP29 (human)) of the same substance?
The co-IP mass spectrometry count was 0.

What about the co-IP mass spectrometry count (HDGFL2 (human)) of the same substance?
The co-IP mass spectrometry count was 0.

And the co-IP mass spectrometry count (HSP90AB1 (human))?
The co-IP mass spectrometry count was 2.

What about the co-IP mass spectrometry count (LARP4 (human)) of the same substance?
Its co-IP mass spectrometry count is 0.

What about the co-IP mass spectrometry count (NTPCR (human)) of the same substance?
Its co-IP mass spectrometry count is 0.

What about the co-IP mass spectrometry count (PDIA4 (human)) of the same substance?
Its co-IP mass spectrometry count is 0.

What about the co-IP mass spectrometry count (PGAM5 (human)) of the same substance?
The co-IP mass spectrometry count was 0.

And the co-IP mass spectrometry count (PSMA5 (human))?
The co-IP mass spectrometry count was 0.

And the co-IP mass spectrometry count (PSMB4 (human))?
The co-IP mass spectrometry count was 0.

What about the co-IP mass spectrometry count (PSMB6 (human)) of the same substance?
Its co-IP mass spectrometry count is 0.

What about the co-IP mass spectrometry count (PXN (human)) of the same substance?
Its co-IP mass spectrometry count is 0.

And the co-IP mass spectrometry count (RCN1 (human))?
The co-IP mass spectrometry count was 0.

And the co-IP mass spectrometry count (RPL34 (human))?
The co-IP mass spectrometry count was 0.

What about the co-IP mass spectrometry count (RRBP1 (human)) of the same substance?
Its co-IP mass spectrometry count is 2.

And the co-IP mass spectrometry count (SFXN3 (human))?
Its co-IP mass spectrometry count is 0.

What about the co-IP mass spectrometry count (STAU1 (human)) of the same substance?
The co-IP mass spectrometry count was 0.

What about the co-IP mass spectrometry count (TECR (human)) of the same substance?
Its co-IP mass spectrometry count is 0.

What about the co-IP mass spectrometry count (TUBA1C (human)) of the same substance?
Its co-IP mass spectrometry count is 14.

And the co-IP mass spectrometry count (ZRANB2 (human))?
The co-IP mass spectrometry count was 0.

And the co-IP mass spectrometry count (ATP5F1B)?
The co-IP mass spectrometry count was 0.

And the co-IP mass spectrometry count (CTSD)?
The co-IP mass spectrometry count was 3.

And the co-IP mass spectrometry count (FABP5)?
The co-IP mass spectrometry count was 2.

And the co-IP mass spectrometry count (HNRNPA1)?
The co-IP mass spectrometry count was 4.

What about the co-IP mass spectrometry count (HNRNPF) of the same substance?
The co-IP mass spectrometry count was 0.

And the co-IP mass spectrometry count (LTF)?
Its co-IP mass spectrometry count is 6.

What about the co-IP mass spectrometry count (PCMT1) of the same substance?
Its co-IP mass spectrometry count is 0.

And the co-IP mass spectrometry count (PPIA)?
Its co-IP mass spectrometry count is 0.

What about the co-IP mass spectrometry count (RCC2) of the same substance?
Its co-IP mass spectrometry count is 0.

And the co-IP mass spectrometry count (RPL11)?
The co-IP mass spectrometry count was 3.

And the co-IP mass spectrometry count (RPL21)?
Its co-IP mass spectrometry count is 5.

And the co-IP mass spectrometry count (RPL36A)?
Its co-IP mass spectrometry count is 2.

What about the co-IP mass spectrometry count (RPLP2) of the same substance?
Its co-IP mass spectrometry count is 3.

What about the co-IP mass spectrometry count (RPS15A) of the same substance?
The co-IP mass spectrometry count was 2.

What about the co-IP mass spectrometry count (RPS17) of the same substance?
The co-IP mass spectrometry count was 3.

What about the co-IP mass spectrometry count (S100A8) of the same substance?
The co-IP mass spectrometry count was 4.

And the co-IP mass spectrometry count (SPRR2E)?
The co-IP mass spectrometry count was 3.

And the co-IP mass spectrometry count (YWHAZ)?
Its co-IP mass spectrometry count is 0.
